neutralization, 50% inhibitory concentration, Mab ID50 (neutralization) and neutralization ID50 data for 7 substances are collected here from patent US20090232830A1.

Common to all, as to test: cell-based or functional assay
In test [1] the target is 14/00/4 envelope protein (HIV-1).
Test [2] has as its target VI1273 envelope protein (HIV-1).
Test [3] has as its target VI843 envelope protein (HIV-1).
For test [4], the target named is MACS#4 envelope protein (HIV-1).
The target in test [5] is R2 envelope protein (HIV-1).
Test [6] deals with CA1 envelope protein (HIV-1).
Test [7] deals with 24/008 envelope protein (HIV-1).
The target of test [8] is VI1249 envelope protein (HIV-1).
The target in test [9] is 93BR029 envelope protein (HIV-1).
The target of test [10] is VI1399 envelope protein (HIV-1).
In test [11] the target is LY109 envelope protein (HIV-1).
The target in test [12] is VI1793 envelope protein (HIV-1).
Test [13] addresses 24/00/4 envelope protein (HIV-1).
Test [14] concerns the target VI423 envelope protein (HIV-1).
Test [15] deals with GXE-14 envelope protein (HIV-1).
Test [16] deals with NYU1423 envelope protein (HIV-1).
The target of test [17] is LY109(N662T) mutant Env (HIV-1).
Test [18] concerns the target NYU1423 (T662) mutant Env (HIV-1).
Test [19] addresses NYU1026 (T662) mutant Env (HIV-1).
Test [20] addresses 14/00/4 (A662) mutant Env (HIV-1).
The target in test [21] is NYU1026 envelope protein (HIV-1).

On to Z13 (antibody), for which the neutralization, 50% inhibitory concentration in test [1], in test [2], in test [3], in test [4], in test [5] and in [6] was over 25 µg/mL in each case. Moreover, the neutralization, 50% inhibitory concentration in test [7], in test [8], in test [9], in [10], in test [11] and in test [12] was over 25 µg/mL throughout. Further, the neutralization, 50% inhibitory concentration in [13], in test [14] and in [15] was over 25 µg/mL each time.
Take X5 (antibody): the neutralization, 50% inhibitory concentration in [1] is over 25 µg/mL; in test [2] it was over 25 µg/mL; in test [3], over 25 µg/mL; in [4], 25 µg/mL; in test [5] it was under 6.25 µg/mL; in test [6], over 25 µg/mL. Besides, the neutralization, 50% inhibitory concentration was over 25 µg/mL in test [7]; 25 µg/mL in [16]; 25 µg/mL in test [8]; under 25 µg/mL in test [9]; under 25 µg/mL in [10]; over 25 µg/mL in test [11]. Further, the neutralization, 50% inhibitory concentration is over 25 µg/mL in [12], over 25 µg/mL in [13], under 6.25 µg/mL in test [14] and over 25 µg/mL in test [15].
Regarding Mab 2F5 (antibody), the Mab ID50 (neutralization) in test [17] turned out to be 0.39 µg/mL; in test [18], 12.5 µg/mL; in test [16] it was 25 µg/mL; in test [11] it was 3.1 µg/mL. The neutralization ID50 in test [1] came out at 0.45 µg/mL; in [18] it was 10.4 µg/mL; in test [16], 17.7 µg/mL; in test [19], 0.31 µg/mL; in test [20], 6.25 µg/mL; in test [21], 3.13 µg/mL. For the same substance, the neutralization, 50% inhibitory concentration in [1] was under 0.39 µg/mL; in test [2], 3.13 µg/mL; in test [3], over 50 µg/mL; in [4] it was 3.13 µg/mL; in test [5] it was 0.78 µg/mL; in test [6], over 12.5 µg/mL. In addition, the neutralization, 50% inhibitory concentration in test [7] was over 50 µg/mL; in test [16], 25 µg/mL; in [8] it was 0.98 µg/mL; in [9] it was 0.39 µg/mL; in [10], 1.56 µg/mL; in test [11], 6.64 µg/mL. In addition, the neutralization, 50% inhibitory concentration in [12] turned out to be 1.17 µg/mL; in [13], 1.17 µg/mL; in test [14] it was 1.96 µg/mL; in test [15] it was 3.13 µg/mL.
On to huMab IgG1 b12 (antibody), for which the neutralization, 50% inhibitory concentration is over 100 µg/mL in [1]; 9.38 µg/mL in test [2]; 50 µg/mL in test [3]; 1.56 µg/mL in [4]; 25 µg/mL in test [5]; over 100 µg/mL in test [6]. The neutralization, 50% inhibitory concentration was over 100 µg/mL in [7]; over 100 µg/mL in [16]; 1.56 µg/mL in test [8]; over 100 µg/mL in test [9]; 0.78 µg/mL in test [10]; 100 µg/mL in [11]. The neutralization, 50% inhibitory concentration in [12] is over 100 µg/mL; in [13], over 100 µg/mL; in [14], 31.2 µg/mL; in [15] it was 25 µg/mL.
On to Mab 4E10 (antibody), for which the Mab ID50 (neutralization) in test [17] is 0.78 µg/mL; in [18], 12.5 µg/mL; in test [16], 25 µg/mL; in [11] it was 12.5 µg/mL. In addition, the neutralization ID50 turned out to be 0.9 µg/mL in [1], 0.78 µg/mL in test [19], 9.34 µg/mL in test [20] and 10.4 µg/mL in test [21]. Further, the neutralization, 50% inhibitory concentration was determined as 1.96 µg/mL in test [1]; 6.25 µg/mL in [2]; 12.5 µg/mL in [3]; 7.82 µg/mL in test [4]; 3.13 µg/mL in test [5]; 12.5 µg/mL in test [6]. In addition, the neutralization, 50% inhibitory concentration is 25 µg/mL in test [7]; 25 µg/mL in [16]; 0.98 µg/mL in test [8]; 0.39 µg/mL in [9]; 3.13 µg/mL in [10]; 18.8 µg/mL in test [11]. Moreover, the neutralization, 50% inhibitory concentration in test [12] was 3.13 µg/mL; in [13] it was 3.91 µg/mL; in [14], 6.25 µg/mL; in [15] it was 13.3 µg/mL.
2G12 (antibody): the neutralization, 50% inhibitory concentration in test [1] is over 50 µg/mL; in test [2] it was 9.38 µg/mL; in test [3], 6.25 µg/mL; in [4], 4.69 µg/mL; in test [5], over 50 µg/mL; in [6] it was over 50 µg/mL. The neutralization, 50% inhibitory concentration is 0.78 µg/mL in test [7]; 25 µg/mL in test [16]; over 50 µg/mL in test [8]; 18.8 µg/mL in [9]; 50 µg/mL in [10]; over 25 µg/mL in test [11]. Further, the neutralization, 50% inhibitory concentration in test [12] was 6.25 µg/mL; in [13], over 50 µg/mL; in test [14] it was 25 µg/mL; in test [15] it was over 50 µg/mL.
Take “two-domain soluble CD4 (from UniProt P01730 26-208) (receptor)”: the neutralization, 50% inhibitory concentration in test [1] was 0.59 µg/mL; in test [2] it was over 50 µg/mL; in test [3] it was over 50 µg/mL; in [4], 1.56 µg/mL; in [5], 0.78 µg/mL; in [6], under 0.39 µg/mL. The neutralization, 50% inhibitory concentration was 4.69 µg/mL in [7]; 25 µg/mL in [16]; 3.13 µg/mL in test [8]; under 0.39 µg/mL in test [9]; 6.25 µg/mL in test [10]; over 25 µg/mL in [11]. For the same substance, the neutralization, 50% inhibitory concentration is 25 µg/mL in [12], over 50 µg/mL in test [13], 50 µg/mL in [14] and 9.34 µg/mL in test [15].
